Positions of bridges follow the written chain, without caps; N, C: chain ends. No end group written: not given here.
B1: nS-FF, (VTELFREG-PEG5)2-K (peptide)
peptide: VTELFREG
chain: K
modifications: not fully specified; core Lys carrying one PEG5-peptide arm on each of its two amines; C-terminal amide; C-terminus joined through a PEG5 linker to one of the two amines of the core Lys
B2: nS-F-Cyc (peptide)
peptide: CVTELFREGC
HELM: PEPTIDE1{C.V.T.E.L.F.R.E.G.C.[am]}$PEPTIDE1,PEPTIDE1,1:R3-10:R3$$$V2.0; N-terminus assumed
SMILES: CC(C)C[C@@H]1NC(=O)[C@H](CCC(=O)O)NC(=O)[C@H]([C@@H](C)O)NC(=O)[C@H](C(C)C)NC(=O)[C@@H](N)CSSC[C@@H](C(N)=O)NC(=O)CNC(=O)[C@H](CCC(=O)O)NC(=O)[C@H](CCCNC(=N)N)NC(=O)[C@H](Cc2ccccc2)NC1=O

What was measured:
Assay in all cases: cell-based or functional assay
[1] = biological target: human SIRPα expressed on cells (PMA-differentiated THP-1 macrophages; A549 cells) (human, UniProt P78324 31-504)
[2] = biological target: T1, mouse SIRPα expressed on J774A.1 macrophages (mouse, UniProt P97797 32-513)
T1 sequence (looked up): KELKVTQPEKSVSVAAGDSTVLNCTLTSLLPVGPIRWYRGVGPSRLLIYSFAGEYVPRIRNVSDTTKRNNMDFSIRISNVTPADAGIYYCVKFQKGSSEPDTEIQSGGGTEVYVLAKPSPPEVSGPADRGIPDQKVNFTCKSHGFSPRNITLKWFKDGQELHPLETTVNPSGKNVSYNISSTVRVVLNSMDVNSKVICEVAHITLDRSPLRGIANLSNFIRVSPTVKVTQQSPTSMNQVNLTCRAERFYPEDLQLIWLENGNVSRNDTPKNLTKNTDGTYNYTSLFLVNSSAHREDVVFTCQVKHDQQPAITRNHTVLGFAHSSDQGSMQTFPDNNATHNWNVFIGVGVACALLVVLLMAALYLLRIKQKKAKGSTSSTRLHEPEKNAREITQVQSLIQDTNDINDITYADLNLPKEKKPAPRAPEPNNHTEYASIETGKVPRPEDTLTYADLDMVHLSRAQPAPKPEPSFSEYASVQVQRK

[3] = biological target: T2, mouse SIRPα expressed on primary bone marrow derived macrophages (C57BL6/J) (mouse, UniProt P97797 32-513)
T2 sequence (looked up): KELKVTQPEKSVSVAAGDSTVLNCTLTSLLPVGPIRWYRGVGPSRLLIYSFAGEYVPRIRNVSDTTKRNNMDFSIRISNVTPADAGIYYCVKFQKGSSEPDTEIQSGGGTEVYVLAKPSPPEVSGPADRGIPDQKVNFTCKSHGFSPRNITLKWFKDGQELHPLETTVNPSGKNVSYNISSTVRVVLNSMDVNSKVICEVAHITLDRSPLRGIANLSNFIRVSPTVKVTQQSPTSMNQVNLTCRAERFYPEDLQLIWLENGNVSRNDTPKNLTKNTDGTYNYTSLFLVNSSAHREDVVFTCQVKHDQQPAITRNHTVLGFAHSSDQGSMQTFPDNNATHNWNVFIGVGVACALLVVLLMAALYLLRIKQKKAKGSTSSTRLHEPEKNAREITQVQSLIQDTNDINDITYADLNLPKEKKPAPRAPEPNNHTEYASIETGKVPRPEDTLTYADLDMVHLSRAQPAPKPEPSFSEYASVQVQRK

Binder | increase in THP-1 macrophage phagocytosis of opsonized RBCs relative to nS-wt [1] [%] | maximum phagocytosis of opsonized RBCs by THP-1 macrophages [1] [%] | maximum phagocytosis of opsonized B16 cells by mouse BMDMs [3] [%] | other results
VTELFREG-NH2 [nS-F] | ~25 | ~25 | ~25 | phagocytosis of opsonized RBCs by J774A.1 macrophages, relative to nS-X [2]: 3 fold
B1 | – | – | – | activity relative to nS-wt in phagocytosis of opsonized RBCs [1]: > 100 fold; increase in phagocytic macrophages relative to anti-CD47 on opRBC [1]: ~10%
VTELTREG-NH2 [nS-wt (nano-Self wild-type peptide)] | – | – | – | fold decrease in effective activity in the mouse macrophage phagocytosis assay relative to the human assay [2]: ~100 fold
CVELTREGC-NH2 (disulfide 1-9; not fully specified) [nS-Cyc (cyclic nano-Self peptide)] | – | ~25 | ~25 | –
B2 | ~25 | ~25 | ~25 | –

Source: US20240158448A1 (University of Pennsylvania, published 2024)
